In the supplement of paper PMC11316812:
± gives the standard deviation of the averaged measurements.

Key:
hTERT-HMEC = test: percentage of EdU-negative (G0-arrested) nuclei per well, 72 h; higher = more G0 arrest; details: reference: sequence is the full UniProt precursor, the tested protein was the secreted form or ectodomain
MCF7 = test: as above; details: reference: sequence is the full UniProt precursor, the tested protein was the secreted form or ectodomain
[1] = protein concentration 0.0225 µM
[2] = protein concentration 0.0072075 µM
[3] = protein concentration 0.072075 µM
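Also: secreted proteins added to cultured cells, EdU pulse at the end, nuclei found by Hoechst imaging, EdU status from nuclear versus surrounding ring intensity ratio, PBS as neutral control.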

| Sequence | percentage of EdU-negative (hTERT-HMEC; [1]) [%] | percentage of EdU-negative (hTERT-HMEC; protein concentration 0.225 µM) [%] | percentage of EdU-negative (MCF7; [1]) [%] | percentage of EdU-negative (MCF7; protein concentration 0.225 µM) [%] | further results |
| --- | --- | --- | --- | --- | --- |
| MALAALMIALGSLGLHTWQAQAVPILPLGLAPDTFDDTYVGCAEEMEEKAAPLLKEEMAHHALLRESWEAAQETWEDKRRGLTLPPGFKAQNGIAIMVYTNSSNTLYWELNQAVRTGGGSRELYMRHFPFKALHFYLIRALQLLRGSGGCSRGPGEVVFRGVGSLRFEPKRLGDSVRLGQFASSSLDKAVAHRFGNATLFSLTTCFGAPIQAFSVFPKEREVLIPPHEVFLVTRFSQDGAQSLVTLWSYNQTCSHFNCAYLGGEKRRGCVSAPGALGTGDLHMTKRHLQQP [Q96L15] |  |  |  |  | percentage of EdU-negative (hTERT-HMEC; protein concentration 0.016 µM): 5.18 ± 0.43%; percentage of EdU-negative (hTERT-HMEC; protein concentration 0.16 µM): 7.23 ± 0.71%; percentage of EdU-negative (MCF7; protein concentration 0.016 µM): 26.5 ± 3.2%; percentage of EdU-negative (MCF7; protein concentration 0.16 µM): 29 ± 1.5% |
| MAGRLLGKALAAVSLSLALASVTIRSSRCRGIQAFRNSFSSSWFHLNTNVMSGSNGSKENSHNKARTSPYPGSKVERSQVPNEKVGWLVEWQDYKPVEYTAVSVLAGPRWADPQISESNFSPKFNEKDGHVERKSKNGLYEIENGRPRNPAGRTGLVGRGLLGRWGPNHAADPIITRWKRDSSGNKIMHPVSGKHILQFVAIKRKDCGEWAIPGGMVDPGEKISATLKREFGEEALNSLQKTSAEKREIEEKLHKLFSQDHLVIYKGYVDDPRNTDNAWMETEAVNYHDETGEIMDNLMLEAGDDAGKVKWVDINDKLKLYASHSQFIKLVAEKRDAHWSEDSEADCHAL [Q9BW91] | 4.99 ± 0.81 | 5.67 ± 0.54 | 26.4 ± 1.5 | 26.1 ± 0.32 |  |
| MPMGSLQPLATLYLLGMLVASCLGRLSWYDPDFQARLTRSNSKCQGQLEVYLKDGWHMVCSQSWGRSSKQWEDPSQASKVCQRLNCGVPLSLGPFLVTYTPQSSIICYGQLGSFSNCSHSRNDMCHSLGLTCLEPQKTTPPTTRPPPTTTPEPTAPPRLQLVAQSGGQHCAGVVEFYSGSLGGTISYEAQDKTQDLENFLCNNLQCGSFLKHLPETEAGRAQDPGEPREHQPLPIQWKIQNSSCTSLEHCFRKIKPQKSGRVLALLCSGFQPKVQSRLVGGSSICEGTVEVRQGAQWAALCDSSSARSSLRWEEVCREQQCGSVNSYRVLDAGDPTSRGLFCPHQKLSQCHELWERNSYCKKVFVTCQDPNPAGLAAGTVASIILALVLLVVLLVVCGPLAYKKLVKKFRQKKQRQWIGPTGMNQNMSFHRNHTATVRSHAENPTASHVDNEYSQPPRNSHLSAYPALEGALHRSSMQPDNSSDSDYDLHGAQRL | 5.29 ± 0.99 | 5.13 ± 0.33 | 24.9 ± 1.4 | 26 ± 3.2 |  |
| MQMPAMMSLLLVSVGLMEALQAQSHPITRRDLFSQEIQLDMALASFDDQYAGCAAAMTAALPDLNHTEFQANQVYADSWTLASSQWQERQARWPEWSLSPTRPSPPPLGFRDEHGVALLAYTANSPLHKEFNAAVREAGRSRAHYLHHFSFKTLHFLLTEALQLLGSGQRPPRCHQVFRGVHGLRFRPAGPRATVRLGGFASASLKHVAAQQFGEDTFFGIWTCLGAPIKGYSFFPGEEEVLIPPFETFQVINASRLAQGPARIYLRALGKHSTYNCEYIKDKKCKSGPCHLDNSAMGQSPLSAVWSLLLLLWFLVVRAFPDGPGLL | 5.126 ± 0.0053 | 6.16 ± 2.3 | 23.7 ± 1.5 | 25 ± 0.33 |  |
| MKLPLLLALLFGAVSALHLRSETSTFETPLGAKTLPEDEETPEQEMEETPCRELEEEEEWGSGSEDASKKDGAVESISVPDMVDKNLTCPEEEDTVKVVGIPGCQTCRYLLVRSLQTFSQAWFTCRRCYRGNLVSIHNFNINYRIQCSVSALNQGQVWIGGRITGSGRCRRFQWVDGSRWNFAYWAAHQPWSRGGHCVALCTRGGHWRRAHCLRRLPFICSY | 5.28 ± 0.63 | 4.45 ± 0.14 | 26.5 ± 0.76 | 29 ± 0.95 |  |
| MGKPWLRALQLLLLLGASWARAGAPRCTYTFVLPPQKFTGAVCWSGPASTRATPEAANASELAALRMRVGRHEELLRELQRLAAADGAVAGEVRALRKESRGLSARLGQLRAQLQHEAGPGAGPGADLGAEPAAALALLGERVLNASAEAQRAAARFHQLDVKFRELAQLVTQQSSLIARLERLCPGGAGGQQQVLPPPPLVPVVPVRLVGSTSDTSRMLDPAPEPQRDQTQRQQEPMASPMPAGHPAVPTKPVGPWQDCAEARQAGHEQSGVYELRVGRHVVSVWCEQQLEGGGWTVIQRRQDGSVNFFTTWQHYKAGFGRPDGEYWLGLEPVYQLTSRGDHELLVLLEDWGGRGARAHYDGFSLEPESDHYRLRLGQYHGDAGDSLSWHNDKPFSTVDRDRDSYSGNCALYQRGGWWYHACAHSNLNGVWHHGGHYRSRYQDGVYWAEFRGGAYSLRKAAMLIRPLKL [Q8NI99] |  |  |  |  | percentage of EdU-negative (hTERT-HMEC; [2]): 4.22 ± 0.45%; percentage of EdU-negative (hTERT-HMEC; [3]): 5.15 ± 0.94%; percentage of EdU-negative (MCF7; [2]): 23.9 ± 1.3%; percentage of EdU-negative (MCF7; [3]): 25.7 ± 0.84% |
| MNLAISIALLLTVLQVSRGQKVTSLTACLVDQSLRLDCRHENTSSSPIQYEFSLTRETKKHVLFGTVGVPEHTYRSRTNFTSKYNMKVLYLSAFTSKDEGTYTCALHHSGHSPPISSQNVTVLRDKLVKCEGISLLAQNTSWLLLLLLSLSLLQATDFMSL | 4.527 ± 0.039 | 6.24 ± 0.86 | 27.7 ± 0.2 | 26.6 ± 1.3 |  |
